According to patent publication US20250289899A1 (Genmab, published 2025):
Blank lines part the entries; values can stand above or below the binder they belong to.

How the values were obtained:
[1] = target: T1, human CD27, full length, on cells (T cells, transfected HEK293F cells, Daudi cells, NFκB-luc2/CD27 Jurkat … (human, UniProt P26842 20-240)); test: flow cytometry on T cells in human PBMC (endogenous CD27), PE goat anti-human IgG, median MFI PE
T1 construct: Residues 1-19 are stated to be the signal peptide; also called TNFRSF7
T1 sequence: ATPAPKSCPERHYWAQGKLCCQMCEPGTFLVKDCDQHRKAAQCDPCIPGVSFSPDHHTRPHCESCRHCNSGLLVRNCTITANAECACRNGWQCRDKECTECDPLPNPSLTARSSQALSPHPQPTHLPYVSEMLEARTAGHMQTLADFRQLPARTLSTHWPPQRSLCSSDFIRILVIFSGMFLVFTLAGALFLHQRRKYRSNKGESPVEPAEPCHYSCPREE
Method: (§1) Non-binding control antibody IgG1-b12-FEAR was used as negative control antibody. *N.B. IgG1-CD27-A, -B, -C, -D and -E carried mutations F405L-L234F-L235E-D265A in the IgG Fc domain, which are functionally irrelevant in the context of this experiment.
(§2) Cells were seeded in 96-Wells plates (100,000 cells per well; Greiner Bio-one, Cat #650180) for sequential incubations, with washing steps in between with FACS buffer, consisting of PBS (Lonza, Cat #BE17-517Q)+1% BSA (Roche, Cat #10735086001)+0.02% Sodium Azide (Bio-World, Cat #41920044-3). The following incubations were applied: antibody concentration series (0.0001-10 μg/mL final concentration) for 30 min at 4° C.; live/dead marker FVS510 (BD, Cat #564406, diluted 1:1,000 in PBS) for 20 min at RT; PE-labeled polyclonal goat anti-human IgG (Jackson Immuno Research, Cat #109-116-098, diluted 1:500) for 30 min at 4° C.; and anti-CD3 antibody for T-cell identification (anti-human CD3: BD, Cat #555335, diluted 1:10; anti-cyno CD3: Miltenyi, Cat #130-091-998, diluted 1:10) for 30 min at 4° C. All samples were analyzed on a FACSCelesta flow cytometer (BD) and FlowJo software. Data were processed and visualized using GraphPad Prism.

[2] = target: T1, human CD27, full length, on cells (T …); test: flow cytometry on HEK293F cells transfected with human CD27, PE goat anti-human IgG, median MFI PE
[3] = target: T2, cynomolgus monkey CD27, full length, on cells (cynomolgus T cells, transfected HEK293F cells) (cynomolgus monkey (Macaca fascicularis), UniProt P26842 20-260 (human entry)); test: flow cytometry on T cells in cynomolgus PBMC (endogenous CD27), PE goat anti-human IgG, median MFI PE
T2 construct: also called cyno CD27
T2 chain: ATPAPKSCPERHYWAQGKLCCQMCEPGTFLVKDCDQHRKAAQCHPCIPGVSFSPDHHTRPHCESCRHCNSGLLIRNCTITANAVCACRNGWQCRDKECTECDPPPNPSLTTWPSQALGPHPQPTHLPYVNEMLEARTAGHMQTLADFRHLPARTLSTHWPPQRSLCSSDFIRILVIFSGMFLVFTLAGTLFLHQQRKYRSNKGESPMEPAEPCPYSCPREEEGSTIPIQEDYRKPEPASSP
Method: as §1, §2

[4] = target: T2, cynomolgus monkey CD27, full length, on …; test: flow cytometry on HEK293F cells transfected with cynomolgus CD27, PE goat anti-human IgG, median MFI PE
Method: as §1, §2

[5] = target: T3, human C1q (from normal human serum) (human, UniProt P02745 23-245; P02746 28-253; P02747 29-245); test: flow cytometry, C1q (20% normal human serum) on human T cells pre-incubated with the antibody, FITC rabbit anti-human C1q, median MFI FITC; antibody concentration varied
T3 construct: 20% normal human serum was the source of C1q
Method: The P329R mutation was previously described to reduce interaction of IgG1 antibodies with C1q and FcgR (Overdijk et al, Molecular Cancer Therapeutics 2020). The effect of the P329R mutation on C1q binding of IgG1-CD27-A comprising the E345R mutation was tested in cellular C1q binding assays in vitro using human healthy donor T cells. Anti-HIV gp120 antibody IgG1-b12-F405L was used as non-binding isotype control antibody (ctrl). […] T cells (2×10⁶ cells/well) were pre-incubated in polystyrene 96-well round-bottom plates with antibody dilution series (8× five-fold dilution starting at 15 μg/mL final assay concentration) for 15 min at 37° C. to allow the antibodies to bind to the T cells. Then, cells were cooled on ice, supplemented with NHS as a source of human C1q (20% NHS final assay concentration) and incubated on ice for 45 min. Cells were subsequently incubated on ice with FITC-labeled Rabbit anti-human C1q antibody (DAKO, Cat #F0254; 20 μg/mL) for 30 min and resuspended in FACS buffer with TO-PRO-3 (ThermoFisher, Cat #T3605; 1:5,000 dilution). C1q binding was determined by flow cytometry measuring the FITC signal on live cells.

T3 sequence (P02745 23-245 limits assumed, chain 1 of 3): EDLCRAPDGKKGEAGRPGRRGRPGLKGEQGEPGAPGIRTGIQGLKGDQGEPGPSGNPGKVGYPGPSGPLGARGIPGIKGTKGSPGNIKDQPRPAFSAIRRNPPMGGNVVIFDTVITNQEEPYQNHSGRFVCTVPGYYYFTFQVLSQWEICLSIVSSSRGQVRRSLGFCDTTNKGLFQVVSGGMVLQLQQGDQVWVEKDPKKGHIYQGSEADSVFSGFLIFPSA
T3 sequence (P02746 28-253 limits assumed, chain 2 of 3): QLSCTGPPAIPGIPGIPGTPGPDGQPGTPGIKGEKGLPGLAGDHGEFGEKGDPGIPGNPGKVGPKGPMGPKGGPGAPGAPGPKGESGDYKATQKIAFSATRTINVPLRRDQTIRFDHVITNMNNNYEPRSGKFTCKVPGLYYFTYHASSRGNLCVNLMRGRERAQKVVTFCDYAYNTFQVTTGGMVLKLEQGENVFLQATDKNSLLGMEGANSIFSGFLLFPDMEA
T3 sequence (P02747 29-245 limits assumed, chain 3 of 3): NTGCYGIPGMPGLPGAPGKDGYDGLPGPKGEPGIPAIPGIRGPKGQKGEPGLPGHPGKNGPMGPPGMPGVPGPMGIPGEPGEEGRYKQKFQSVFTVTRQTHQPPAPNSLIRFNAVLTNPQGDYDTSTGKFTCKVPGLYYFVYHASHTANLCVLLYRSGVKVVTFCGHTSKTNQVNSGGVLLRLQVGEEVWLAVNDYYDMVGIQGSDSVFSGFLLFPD

EC50 (read off the curve) [1]: ~0.04 µg/mL | EC50 (read off the curve) [2]: ~0.1 µg/mL | EC50 (read off the curve) [3]: ~0.04 µg/mL | EC50 (read off the curve) [4]: ~0.06 µg/mL
B1: IgG1-CD27-A carrying F405L-L234F-L235E-D265A in the IgG Fc domain (antibody)
heavy: QVQLMQSGSELKKPGASVKVSCRASGYTFTTYAMNWVRQAPGQGPEWMGWINTNTGNPTYAQGFTGRFVFSLDTTVTTTYLQISSLKAEDTAVYFCAREAGSFDYWGQGTLVTVSSASTKGPSVFPLAPSSKSTSGGTAALGCLVKDYFPEPVTVSWNSGALTSGVHTFPAVLQSSGLYSLSSVVTVPSSSLGTQTYICNVNHKPSNTKVDKRVEPKSCDKTHTCPPCPAPEFEGGPSVFLFPPKPKDTLMISRTPEVTCVVVAVSHEDPEVKFNWYVDGVEVHNAKTKPREEQYNSTYRVVSVLTVLHQDWLNGKEYKCKVSNKALPAPIEKTISKAKGQPREPQVYTLPPSREEMTKNQVSLTCLVKGFYPSDIAVEWESNGQPENNYKTTPPVLDSDGSFLLYSKLTVDKSRWQQGNVFSCSVMHEALHNHYTQKSLSLSPGK
light: QSALTQPASVSGSPGQSITISCTGTSSDVYYYNYVSWYQQHPGRAPKLVIYDVSNRPSGVSNRFSGSKSGNTASLTISGLRAEDEADYYCSSYTVNRVWVFGGGTKLTVLGQPKAAPSVTLFPPSSEELQANKATLVCLISDFYPGAVTVAWKADSSPVKAGVETTTPSKQSNNKYAASSYLSLTPEQWKSHRSYSCQVTHEGSTVEKTVAPTECS

binding result [5]: no binding (tested: 15 µg/mL)
B2: IgG1-CD27-A (wild-type IgG1 Fc) (antibody)
heavy: not shown
light: QSALTQPASVSGSPGQSITISCTGTSSDVYYYNYVSWYQQHPGRAPKLVIYDVSNRPSGVSNRFSGSKSGNTASLTISGLRAEDEADYYCSSYTVNRVWVFGGGTKLTVLGQPKAAPSVTLFPPSSEELQANKATLVCLISDFYPGAVTVAWKADSSPVKAGVETTTPSKQSNNKYAASSYLSLTPEQWKSHRSYSCQVTHEGSTVEKTVAPTECS
notes: also called WT IgG1-CD27-A; IgG-CD27-A

EC50 (read off the curve) [5]: ~0.03 µg/mL
B3: IgG1-CD27-A-E430G (antibody)
heavy: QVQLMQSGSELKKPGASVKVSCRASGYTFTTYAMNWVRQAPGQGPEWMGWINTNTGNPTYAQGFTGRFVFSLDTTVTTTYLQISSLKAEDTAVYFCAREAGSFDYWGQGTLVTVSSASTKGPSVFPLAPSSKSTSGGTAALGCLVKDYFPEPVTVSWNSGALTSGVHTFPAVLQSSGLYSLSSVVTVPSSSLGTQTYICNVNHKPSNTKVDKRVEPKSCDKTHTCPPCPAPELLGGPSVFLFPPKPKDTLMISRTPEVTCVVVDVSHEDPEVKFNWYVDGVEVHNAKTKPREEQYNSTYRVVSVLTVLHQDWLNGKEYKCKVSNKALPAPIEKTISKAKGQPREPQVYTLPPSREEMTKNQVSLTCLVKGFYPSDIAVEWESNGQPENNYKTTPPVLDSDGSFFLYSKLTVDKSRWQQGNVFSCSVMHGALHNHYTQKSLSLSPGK
light: QSALTQPASVSGSPGQSITISCTGTSSDVYYYNYVSWYQQHPGRAPKLVIYDVSNRPSGVSNRFSGSKSGNTASLTISGLRAEDEADYYCSSYTVNRVWVFGGGTKLTVLGQPKAAPSVTLFPPSSEELQANKATLVCLISDFYPGAVTVAWKADSSPVKAGVETTTPSKQSNNKYAASSYLSLTPEQWKSHRSYSCQVTHEGSTVEKTVAPTECS

binding result [5]: binds
B4: IgG1-CD27-A-E345R (antibody)
heavy: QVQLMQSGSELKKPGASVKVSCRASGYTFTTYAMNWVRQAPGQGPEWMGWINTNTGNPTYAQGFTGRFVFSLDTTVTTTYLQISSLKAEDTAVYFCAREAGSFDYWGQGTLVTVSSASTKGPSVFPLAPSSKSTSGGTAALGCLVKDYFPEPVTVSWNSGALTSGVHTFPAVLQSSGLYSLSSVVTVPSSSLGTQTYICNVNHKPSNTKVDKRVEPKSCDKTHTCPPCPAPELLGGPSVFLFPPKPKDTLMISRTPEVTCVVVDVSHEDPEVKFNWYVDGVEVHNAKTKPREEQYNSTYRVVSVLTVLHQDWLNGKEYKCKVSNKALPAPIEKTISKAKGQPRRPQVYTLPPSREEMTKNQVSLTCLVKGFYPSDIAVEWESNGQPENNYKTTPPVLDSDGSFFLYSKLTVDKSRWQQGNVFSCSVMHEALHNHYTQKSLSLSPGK
light: QSALTQPASVSGSPGQSITISCTGTSSDVYYYNYVSWYQQHPGRAPKLVIYDVSNRPSGVSNRFSGSKSGNTASLTISGLRAEDEADYYCSSYTVNRVWVFGGGTKLTVLGQPKAAPSVTLFPPSSEELQANKATLVCLISDFYPGAVTVAWKADSSPVKAGVETTTPSKQSNNKYAASSYLSLTPEQWKSHRSYSCQVTHEGSTVEKTVAPTECS
notes: also called IgG-CD27-A-E345R
